Patent US20250269047A1
Blank lines part the entries; values can stand above or below the binder they belong to.

What was measured:
[1] = molecular target: human B7-H3 naturally expressed on the surface of tumor cells (human) (UniProt Q5ZPR3); assay: FACS on A431 cells
[2] = molecular target: human B7-H3 naturally expressed on the surface of tumor cells (human) (UniProt Q5ZPR3); assay: FACS on SKVO3 cells

human B7-H3 naturally expressed on the surface of tumor cells (human), sequence (Q5ZPR3 29-534): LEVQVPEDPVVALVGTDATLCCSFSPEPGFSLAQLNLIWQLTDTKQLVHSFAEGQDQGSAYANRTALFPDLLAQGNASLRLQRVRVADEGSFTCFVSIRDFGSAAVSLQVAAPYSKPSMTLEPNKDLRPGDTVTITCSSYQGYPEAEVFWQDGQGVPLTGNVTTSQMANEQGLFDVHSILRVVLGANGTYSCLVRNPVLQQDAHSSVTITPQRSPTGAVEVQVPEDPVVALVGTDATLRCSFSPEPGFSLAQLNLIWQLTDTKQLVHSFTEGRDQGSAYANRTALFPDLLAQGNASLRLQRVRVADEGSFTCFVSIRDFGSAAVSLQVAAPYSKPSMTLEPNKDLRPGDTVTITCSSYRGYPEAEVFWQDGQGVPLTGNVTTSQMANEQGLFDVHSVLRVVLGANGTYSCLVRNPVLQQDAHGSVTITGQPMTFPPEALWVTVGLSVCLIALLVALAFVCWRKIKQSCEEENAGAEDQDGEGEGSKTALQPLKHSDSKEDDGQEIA

B1: Enoblituzumab (antibody, human IgG1, kappa, V domains shown)
VH: EVQLVESGGGLVQPGGSLRLSCAASGFTFSSFGMHWVRQAPGKGLEWVAYISSDSSAIYYADTVKGRFTISRDNAKNSLYLQMNSLRDEDTAVYYCGRGRENIYYGSRLDYWGQGTTVTVSS
VL: DIQLTQSPSFLSASVGDRVTITCKASQNVDTNVAWYQQKPGKAPKALIYSASYRYSGVPSRFSGSGSGTDFTLTISSLQPEDFATYYCQQYNNYPFTFGQGTKLEIKR
EC50 [1]: 0.374 µg/mL | EC50 [2]: 0.191 µg/mL

B3: ch9B11 (antibody, human IgG1, V domains shown)
VH: EVQLQQSGPELVRPGVSVKISCKGSGYSFTDYAIHWVKQSHAMSLEWIGIINTYYGNTNYNQKFKGKATMTVDKSSSTAYMELARLTSADSAIYYCARSTTTATFYWYFDVWGAGTTVSVSS
VL: DIVLTQSPVTLSVTPGDSVSLSCRASQSINNNLHWYQQKPHESPRLLIKYASQSISGIPSRFSGSGSGTDFTLSFNSVETEDFGMYFCQQSHSWPYTFGGGTKLEIK
EC50 [1]: 0.137 µg/mL

B5: ch10B4 (antibody, human IgG1, V domains shown)
VH: EVQLQQSGPELVKPGASVKISCKTSGYTFTEYIMHWVKQSHGKSLEWIGGINPNNGGTTYNQKFKGKATLTVDKSSSTAYMELRSLTSEDSAVYYCARKGKDYFDWYFDVWGAGTTVTVSS
VL: QIVLTQSPTIMSASPGEKVTMTCSASSSVSYMHWYQQKSGTSPKRWIYDTSKLASGVPARFSGSGSGTSYSLTISSMEAEDAATYYCQQWSSNPLTFGAGTKLELK
EC50 [1]: 0.203 µg/mL

B6: MGC-018 (antibody, human IgG1, kappa, V domains shown)
VH: EVQLVESGGGLVKPGGSLRLSCAASGFTFSSYGMSWVRQAPGKGLEWVATINSGGSNTYYPDSLKGRFTISRDNAKNSLYLQMNSLRAEDTAVYYCARHDGGAMDYWGQGTTVTVSS
VL: DIQMTQSPSSLSASVGDRVTITCRASESIYSYLAWYQQKPGKAPKLLVYNTKTLPEGVPSRFSGSGSGTDFTLTISSLQPEDFATYYCQHHYGTPPWTFGQGTRLEIKR
EC50 [2]: 0.0565 µg/mL

Second part, the binder after the results:

EC50 [2]: 0.0441 µg/mL
B2: hz17A3-14 (antibody, human IgG1, kappa, V domains shown)
VH: EVQLVQSGAEVKKPGASVKVSCKASGYTFTDYALHWVRQAPGQGLEWMGLINTYSSNTNYNQKFKDRVTMTRDTSISTAYMELSRLRSEDTAVYYCARGITAVVGTRYYAMDYWGQGTLVTVSS
VL: EIVLTQSPGTLSLSPGERATLSCRASQSISNNLHWYQQKPGQAPRLLIKYTSQSISGIPDRFSGSGSGTDFTLTISRLEPEDFAVYYCQQSYSWPLTFGGGTKVEIKR

EC50 [1]: 0.101 µg/mL
B4: ch17A3 (antibody, human IgG1, V domains shown)
VH: QVQLQQSGPELVRPGVSVKISCKGSGYTFTDYALHWVKQSHAKSPQWIGLINTYSSNTNYNQKFKDKATMTVDKSSSTAYMELARLTSEDSAIYYCARGITAVVGTRYYAMDYWGQGTSVTVSS
VL: NIVLTQSPTTLSVTPGDTVSLSCRASQSISNNLHWYQQRSHESPRLIIKYTSQNISGIPSRFSGSGSGTDFTLSINSVETEDFGMYFCQQSYSWPLTFGAGTKLELKR
